According to article PMC6555819, “Comprehensive study of nuclear receptor DNA binding provides a revised framework for understanding receptor specificity”:

B1: NRC3_wobSeed109_DR4_C7A_o1 (dsDNA)
DNA 1: GCCGTCAAAGGTCATAGGAGGTCAGTGAAGACAGATGCGATTGACAGCGTAGAATGAAGG
DNA 2: CCTTCATTCTACGCTGTCAATCGCATCTGTCTTCACTGACCTCCTATGACCTTTGACGGC
B2: NRC3_wobSeed27_DR1_A12T_o1 (dsDNA)
DNA 1: GCACTCGGAGGTCAAAGGTCAGAGCTACGCCAGTGAGCGATTGACAGCGTAGAATGAAGG
DNA 2: CCTTCATTCTACGCTGTCAATCGCTCACTGGCGTAGCTCTGACCTTTGACCTCCGAGTGC
B3: NRC3_random_hg19_478_o1 (dsDNA)
DNA 1: GCATCAGCCATTTGGTATGCAAGTAGATTAGAAGCCGCGATTGACAGCGTAGAATGAAGG
DNA 2: CCTTCATTCTACGCTGTCAATCGCGGCTTCTAATCTACTTGCATACCAAATGGCTGATGC
B4: NRC3_random_hg19_204_o1 (dsDNA)
DNA 1: GCGCCTGCATCTCCACATCCATGGAGTCCTGCTGAGGCGATTGACAGCGTAGAATGAAGG
DNA 2: CCTTCATTCTACGCTGTCAATCGCCTCAGCAGGACTCCATGGATGTGGAGATGCAGGCGC
B5: NRC3_random_hg19_355_o1 (dsDNA)
DNA 1: GCTCACCGTGTTAGCCAGGATGGTCTCAATCTCCTGGCGATTGACAGCGTAGAATGAAGG
DNA 2: CCTTCATTCTACGCTGTCAATCGCCAGGAGATTGAGACCATCCTGGCTAACACGGTGAGC
B6: NRC3_wobSeed74_DR3_T9A_o1 (dsDNA)
DNA 1: GCTCTAGTAGGTCACGGAGGTCACACACGACGGGTAGCGATTGACAGCGTAGAATGAAGG
DNA 2: CCTTCATTCTACGCTGTCAATCGCTACCCGTCGTGTGTGACCTCCGTGACCTACTAGAGC
B7: NRC3_random_hg19_67_o1 (dsDNA)
DNA 1: GCCTGGCTGGGCATGGTGGCTCATGCCTGTAATCCCGCGATTGACAGCGTAGAATGAAGG
DNA 2: CCTTCATTCTACGCTGTCAATCGCGGGATTACAGGCATGAGCCACCATGCCCAGCCAGGC

biological target: LXRa:RXRa (Homo sapiens, UniProt Q13133;P19793 full;full); test: no ligand; PBM; 270 nM : 90 nM RXRa; PBS pH 7.4, 2% milk, 0.02% Triton X-100, 1 mM DTT, BSA, 0.4 mg/ml salmon testes DNA; settings: tags: His kept;His cleaved; copies: 1;1; label: surface-attached array probe
Sequence (Q13133 whole entry, chain 1 of 2): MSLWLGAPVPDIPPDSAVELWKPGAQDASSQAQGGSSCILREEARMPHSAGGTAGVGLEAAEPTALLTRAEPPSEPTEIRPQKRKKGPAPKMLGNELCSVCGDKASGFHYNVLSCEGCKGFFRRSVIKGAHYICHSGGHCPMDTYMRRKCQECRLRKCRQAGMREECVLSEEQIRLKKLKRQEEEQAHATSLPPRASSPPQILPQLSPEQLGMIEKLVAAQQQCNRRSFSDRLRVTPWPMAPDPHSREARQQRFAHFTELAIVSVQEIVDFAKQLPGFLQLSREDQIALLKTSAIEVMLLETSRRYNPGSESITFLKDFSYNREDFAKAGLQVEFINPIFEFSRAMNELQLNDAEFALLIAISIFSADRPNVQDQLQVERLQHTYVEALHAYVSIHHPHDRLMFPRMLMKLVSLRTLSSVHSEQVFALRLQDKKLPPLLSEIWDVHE
Sequence (P19793 whole entry, chain 2 of 2): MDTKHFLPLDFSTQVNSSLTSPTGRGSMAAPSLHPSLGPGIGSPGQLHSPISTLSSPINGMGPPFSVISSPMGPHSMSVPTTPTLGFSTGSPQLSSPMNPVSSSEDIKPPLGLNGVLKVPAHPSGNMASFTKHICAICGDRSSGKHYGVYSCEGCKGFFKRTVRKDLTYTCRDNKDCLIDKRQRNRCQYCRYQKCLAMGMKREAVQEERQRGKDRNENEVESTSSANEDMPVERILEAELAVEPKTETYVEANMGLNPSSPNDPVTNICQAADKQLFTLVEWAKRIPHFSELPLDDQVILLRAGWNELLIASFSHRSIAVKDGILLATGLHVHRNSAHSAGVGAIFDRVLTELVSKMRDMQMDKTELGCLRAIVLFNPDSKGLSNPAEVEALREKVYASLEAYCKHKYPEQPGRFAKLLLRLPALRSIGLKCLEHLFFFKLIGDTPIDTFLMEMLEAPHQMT
Method in brief: (§1)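 Binding z-scores were set against random background probes. The data came from custom Agilent 4×180K protein-binding microarrays carrying double-stranded probes with 34-nt variable regions, incubated 1 h with ligand-free nuclear receptor dimers. Partner-specific antibodies detected binding, and scanned fluorescence was regression-normalized.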

Row | Binder | binding signal
1 | B1 | 8.48 PBM z-score against 500 random probes
2 | B2 | 7.5 PBM z-score against 500 random probes
3 | B3 | -0.84 PBM z-score against 500 random probes

biological target: FXR:RXRa (Homo sapiens, UniProt Q96RI1;P19793 full;full); test: as above; settings: tags: His kept;His cleaved; copies: 1;1; label: surface-attached array probe
Method in brief: as §1

Row | Binder | binding signal
4 | B1 | 8.92 PBM z-score against 500 random probes
5 | B2 | 8.54 PBM z-score against 500 random probes

biological target: LXRb:RXRa (Homo sapiens, UniProt P55055;P19793 full;full); test: as above; settings: tags: His kept;His cleaved; copies: 1;1; label: surface-attached array probe
Method in brief: as §1

Row | Binder | binding signal
6 | B1 | 7.17 PBM z-score against 500 random probes
7 | B2 | 6.9 PBM z-score against 500 random probes

biological target: RARg:RXRa (Homo sapiens, UniProt P13631;P19793 full;full); test: as above; settings: tags: His kept;His cleaved; copies: 1;1; label: surface-attached array probe
Method in brief: as §1

Row | Binder | binding signal
8 | B1 | 8.29 PBM z-score against 500 random probes
9 | B2 | 9.09 PBM z-score against 500 random probes

biological target: RARa:RXRa (Homo sapiens, UniProt P10276;P19793 full;full); test: as above; settings: tags: His kept;His cleaved; copies: 1;1; label: surface-attached array probe
Method in brief: as §1

Row | Binder | binding signal
10 | B4 | -0.76 PBM z-score against 500 random probes
11 | B5 | -0.62 PBM z-score against 500 random probes
12 | B6 | 7.07 PBM z-score against 500 random probes
13 | B1 | 7.3 PBM z-score against 500 random probes
14 | B2 | 9.37 PBM z-score against 500 random probes
15 | B7 | -0.94 PBM z-score against 500 random probes
16 | B3 | -0.34 PBM z-score against 500 random probes

biological target: VDR:RXRa (Homo sapiens, UniProt P11473;P19793 full;full); test: as above; settings: tags: His kept;His cleaved; copies: 1;1; label: surface-attached array probe
Sequence (P11473 whole entry, chain 1 of 2): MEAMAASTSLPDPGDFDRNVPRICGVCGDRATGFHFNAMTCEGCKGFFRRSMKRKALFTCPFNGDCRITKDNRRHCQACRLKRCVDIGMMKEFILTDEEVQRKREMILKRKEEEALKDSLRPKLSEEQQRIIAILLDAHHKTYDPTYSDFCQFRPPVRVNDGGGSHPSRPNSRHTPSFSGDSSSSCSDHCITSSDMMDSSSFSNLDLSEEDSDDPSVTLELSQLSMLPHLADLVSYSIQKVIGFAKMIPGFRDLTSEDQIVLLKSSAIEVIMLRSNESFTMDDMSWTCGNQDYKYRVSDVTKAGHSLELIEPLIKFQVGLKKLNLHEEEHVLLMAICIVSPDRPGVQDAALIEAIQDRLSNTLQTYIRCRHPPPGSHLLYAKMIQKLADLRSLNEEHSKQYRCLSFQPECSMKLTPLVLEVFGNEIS
Sequence (P19793 whole entry, chain 2 of 2): as the sequence (P19793 whole entry, chain 2 of 2) above
Method in brief: as §1

Row | Binder | binding signal
17 | B6 | 7.91 PBM z-score against 500 random probes
18 | B1 | 7.29 PBM z-score against 500 random probes
19 | B2 | 7.02 PBM z-score against 500 random probes

biological target: PXR:RXRa (Homo sapiens, UniProt O75469;P19793 full;full); test: as above; settings: tags: His kept;His cleaved; copies: 1;1; label: surface-attached array probe
Sequence (O75469 whole entry, chain 1 of 2): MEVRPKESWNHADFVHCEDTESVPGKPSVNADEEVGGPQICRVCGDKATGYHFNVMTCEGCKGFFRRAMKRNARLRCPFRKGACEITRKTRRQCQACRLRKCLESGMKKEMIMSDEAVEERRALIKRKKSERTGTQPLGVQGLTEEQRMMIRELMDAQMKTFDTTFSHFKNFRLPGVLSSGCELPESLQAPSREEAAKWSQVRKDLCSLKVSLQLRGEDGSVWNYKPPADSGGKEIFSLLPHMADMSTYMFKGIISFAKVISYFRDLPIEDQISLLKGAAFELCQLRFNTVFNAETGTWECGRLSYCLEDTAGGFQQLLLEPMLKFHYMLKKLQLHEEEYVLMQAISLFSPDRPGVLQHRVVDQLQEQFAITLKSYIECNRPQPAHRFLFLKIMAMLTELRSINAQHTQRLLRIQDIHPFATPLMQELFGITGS
Sequence (P19793 whole entry, chain 2 of 2): as the sequence (P19793 whole entry, chain 2 of 2) above
Method in brief: as §1

Row | Binder | binding signal
20 | B4 | -0.93 PBM z-score against 500 random probes
21 | B6 | 6.39 PBM z-score against 500 random probes
22 | B1 | 7.51 PBM z-score against 500 random probes
23 | B2 | 7.52 PBM z-score against 500 random probes

biological target: RARb:RXRa (Homo sapiens, UniProt P10826;P19793 full;full); test: as above; settings: tags: His kept;His cleaved; copies: 1;1; label: surface-attached array probe
Method in brief: as §1

Row | Binder | binding signal
24 | B6 | 5.43 PBM z-score against 500 random probes
25 | B1 | 6.2 PBM z-score against 500 random probes
26 | B2 | 5.85 PBM z-score against 500 random probes

biological target: PPARa:RXRa (Homo sapiens, UniProt Q07869;P19793 full;full); test: as above; settings: tags: GST kept;His cleaved; copies: 1;1; label: surface-attached array probe
Sequence (Q07869 whole entry, chain 1 of 2): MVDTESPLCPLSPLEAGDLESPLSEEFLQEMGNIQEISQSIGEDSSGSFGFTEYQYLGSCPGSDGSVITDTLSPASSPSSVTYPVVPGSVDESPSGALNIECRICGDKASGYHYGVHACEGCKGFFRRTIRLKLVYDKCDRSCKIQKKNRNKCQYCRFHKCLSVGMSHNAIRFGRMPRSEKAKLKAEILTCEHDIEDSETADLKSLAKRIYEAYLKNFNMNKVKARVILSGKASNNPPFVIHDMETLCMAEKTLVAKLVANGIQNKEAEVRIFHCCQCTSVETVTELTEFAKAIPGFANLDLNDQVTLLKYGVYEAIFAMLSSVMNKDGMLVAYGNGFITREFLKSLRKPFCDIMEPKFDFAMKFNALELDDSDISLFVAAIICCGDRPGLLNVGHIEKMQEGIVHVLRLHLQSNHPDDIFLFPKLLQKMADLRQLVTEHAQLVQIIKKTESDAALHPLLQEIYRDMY
Sequence (P19793 whole entry, chain 2 of 2): as the sequence (P19793 whole entry, chain 2 of 2) above
Method in brief: as §1

Row | Binder | binding signal
27 | B5 | 0.1 PBM z-score against 500 random probes
28 | B1 | 7.01 PBM z-score against 500 random probes
29 | B2 | 7.2 PBM z-score against 500 random probes
30 | B3 | -0.63 PBM z-score against 500 random probes

biological target: THRa:RXRa (Homo sapiens, UniProt P10827;P19793 full;full); test: no ligand; PBM; 90 nM : 90 nM RXRa; PBS pH 7.4, 2% milk, 0.02% Triton X-100, 1 mM DTT, BSA, 0.4 mg/ml salmon testes DNA; settings: tags: His kept;His cleaved; copies: 1;1; label: surface-attached array probe
Sequence (P10827 other isoform, or with tags, fused parts or gaps, chain 1 of 2): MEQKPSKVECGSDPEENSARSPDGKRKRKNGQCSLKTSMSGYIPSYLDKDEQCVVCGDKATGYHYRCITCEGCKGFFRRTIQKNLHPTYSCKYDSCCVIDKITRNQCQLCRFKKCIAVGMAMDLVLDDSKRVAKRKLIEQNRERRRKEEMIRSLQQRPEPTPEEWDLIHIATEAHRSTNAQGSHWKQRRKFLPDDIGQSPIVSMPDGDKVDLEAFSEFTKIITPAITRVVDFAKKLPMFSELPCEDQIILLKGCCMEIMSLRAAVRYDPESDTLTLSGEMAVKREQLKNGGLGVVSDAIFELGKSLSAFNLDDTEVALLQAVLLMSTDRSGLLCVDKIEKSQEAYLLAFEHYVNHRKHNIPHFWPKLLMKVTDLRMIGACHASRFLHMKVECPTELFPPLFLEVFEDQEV
Sequence (P19793 whole entry, chain 2 of 2): as the sequence (P19793 whole entry, chain 2 of 2) above

Row | Binder | binding signal
31 | B4 | -0.86 PBM z-score against 500 random probes
32 | B5 | -0.48 PBM z-score against 500 random probes
33 | B6 | 4.93 PBM z-score against 500 random probes
34 | B1 | 5.57 PBM z-score against 500 random probes
35 | B2 | 4.83 PBM z-score against 500 random probes
36 | B7 | -0.95 PBM z-score against 500 random probes
37 | B3 | -0.66 PBM z-score against 500 random probes

biological target: RXRa (Homo sapiens, UniProt P19793); test: no ligand; PBM; 180 nM; PBS pH 7.4, 2% milk, 0.02% Triton X-100, 1 mM DTT, BSA, 0.4 mg/ml salmon testes DNA; settings: tags: His cleaved; chain copies: 2; label: surface-attached array probe
Sequence (P19793 whole entry): as the sequence (P19793 whole entry, chain 2 of 2) above

Row | Binder | binding signal
38 | B4 | -0.59 PBM z-score against 500 random probes
39 | B5 | -0.34 PBM z-score against 500 random probes
40 | B1 | 8.51 PBM z-score against 500 random probes
41 | B2 | 10.9 PBM z-score against 500 random probes

biological target: PPARg:RXRa (Homo sapiens, UniProt P37231;P19793 full;full); test: no ligand; PBM; 180 nM : 90 nM RXRa; PBS pH 7.4, 2% milk, 0.02% Triton X-100, 1 mM DTT, BSA, 0.4 mg/ml salmon testes DNA; settings: tags: His kept;His cleaved; copies: 1;1; label: surface-attached array probe

Row | Binder | binding signal
42 | B4 | 0.07 PBM z-score against 500 random probes
43 | B5 | -0.61 PBM z-score against 500 random probes
44 | B6 | 9.93 PBM z-score against 500 random probes
45 | B2 | 11.6 PBM z-score against 500 random probes
46 | B7 | -1.37 PBM z-score against 500 random probes
47 | B3 | 0.2 PBM z-score against 500 random probes
